This test deals with T1, Aβ42 (human, UniProt P05067 672-713).
T1 construct: range 672-713; In the Elecsys experiments it is the native Aβ42 of the plasma sample; also called Ab42; Abeta42
The test is described as follows: SPR (Biacore 8K+), antibody captured, Aβ42 injected, 37° C., Langmuir 1:1 fit. How it is done:
Measurements were performed using the BIAcore™ 8K+ instruments. Aβ-42 concentration series ranging from 1.2 nM to 900 nM were injected at […]. The association phase was monitored for 3 min, the dissociation phase between 5 min to 10 min at 37° C.
The measurements were performed using PBS-DT+, pH7.4 (10 mM phosphate buffer, 2.7 mM KCl, 137 mM NaCl. 5% DMSO, 0.05% Tween 20) as running buffer.
The kinetic rate constants and the dissociation equilibrium constants KD were calculated using a Langmuir 1:1 fit model according Scrubber Version 2.0.c.
(In general: SPR reads the build-up and loss of mass on a sensor chip optically.)

For orientation: Kd means the equilibrium constant for the complex coming apart. Usually koff stands for a measure of how fast the partners let go of each other. Read a high koff as a short-lived complex. As usually defined, the kon is the second-order rate constant of association. The low end stands for slow association, the high end for fast association.

T1 sequence (P05067 672-713 limits assumed, form in doubt): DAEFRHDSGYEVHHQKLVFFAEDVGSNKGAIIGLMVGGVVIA

B1: Mouse anti Aβ-42 antibody 3.2.52 (IgG2b), expressed in hybridoma (antibody)
heavy: EVQLQQSGPELVKLGASVRVSCRTSGFTITEYTMHWVKQSHGKSLEWIGGINPITGGSRNNLKFKDKATLTGDKSSSTVYMDLRSLTSEGSTVNYCVRGRTMGPLDYWGQGTTLTVSSAKTTPPSVYPLAPGCGDTTGSSVTLGCLVKGYFPESVTVTWNSGSLSSSVHTFPALLQSGLYTMSSSVTVPSSTWPSQTVTCSVAHPASSTTVDKKLEPSGPISTINPCPPCKECHKCPAPNLEGGPSVFIFPPNIKDVLMISLTPKVTCVVVDVSEDDPDVRISWFVNNVEVHTAQTQTHREDYNSTIRVVSALPIQHQDWMSGKEFKCKVNNKDLPSPIERTISKIKGLVRAPQVYILPPPAEQLSRKDVSLTCLVVGFNPGDISVEWTSNGHTEENYKDTAPVLDSDGSYFIYSKLDIKTSKWEKTDSFSCNVRHEGLKNYYLKKTISRSPGK
light: not shown
notes: Full-length mouse IgG2b; Biotinylated when used as capture antibody in Elecsys assays; also called M-3.2.52; clone 3.2.52
As for B1, the dissociation constant Kd is 6.7 nM, the “MR (molar ratio)” value came out at 0.7, the koff is 0.0253 s⁻¹ and the kon stood at 3.8e+06 M⁻¹ s⁻¹. For the same molecule, the “t/2 diss (complex half-life)” value is below 1 min.

Values taken from patent US20240352110A1 (ROCHE DIAGNOSTICS OPERATIONS, published 2024).
